Reference: patent US8889709B2, “Use of isoQC inhibitors in the treatment and prevention of inflammatory diseases or conditions” (Probiodrug AG, priority 2006, dated 2014)

Columns and labels:
Test in all cases: Kinetic parameters of conversion of peptide substrates by murine isoQC
Assay type in all cases: biochemical, mouse
Settings in all cases: pH 8.0; 30.0 °C
[1] = substrate: NC(=O)CC[C@H](N)C(=O)N[C@@H](CCC(=O)O)C(=O)O
[2] = substrate: NC(=O)CC[C@H](N)C(=O)NCC(=O)N1CCC[C@H]1C(=O)O
[3] = substrate: C[C@H](NC(=O)[C@H](Cc1ccc(O)cc1)NC(=O)[C@@H](N)CCC(N)=O)C(=O)O

B1: mouse-isoQC (Mus musculus; I74N) (protein)
chain: EEMSRSRDLRVPLNGSLSEAKLRLVVGQLDPQRLWGTFLRPLLIVRPPGSSGNLQVRKFLEATLQSLSAGWHVELDPFTASTPLGPLDFGNVVATLDPGAARHLTLACHYDSKFFPPGLPPFVGATDSAVPCALLLELVQALDAMLSRIKQQAAPVTLQLLFLDGEEALKEWGPKDSLYGSRHLAQIMESIPHSPGPTRIQAIELFVLLDLLGASSPIFFSHFPRTARWFQRLRSIEKRLHRLNLLQSHPQEVMYFQPGEPPGPVEDDHIPFLRRGVPVLHLIATPFPAVWHTPADTEANLHPPTVHNLSRILAVFLAEYLGL
notes: starting with codon 43 (Glu 43) of the open reading frame (counting from methionine II); yeast alpha-factor secretion signal (N); made in house; host or cells: Pichia pastoris X-33
- Km [1]: 470 ± 40 µM
- kcat [1]: 7.79 ± 0.44 s⁻¹
- kcat/Km [1]: 16880 ± 2320 M⁻¹ s⁻¹
- Km [2]: 102 ± 6 µM
- kcat [2]: 11.4 ± 0.4 s⁻¹
- kcat/Km [2]: 111440 ± 6810 M⁻¹ s⁻¹
- Km [3]: 58 ± 4 µM
- kcat [3]: 22.9 ± 0.86 s⁻¹
- kcat/Km [3]: 394230 ± 21360 M⁻¹ s⁻¹
